This is an account of results in a protein production outcome set (Wang et al. 2014).

This series in a line: label from the status in PepcDB records.

Consider “MSLTTFLFRNGALLDPDHPDLLQGFEILIEDGFIREVSDKPIKSSNAHVIDVKGKTIMPGLIDLHVHVVAIEFNLPRVATLPNVLVTLRAVPIMRAMLRRGFTTVRDAGGAGYPFKQAVESGLVEGPRLFVSGRALSQTGGHADPRARSDYMPPDSPCGCCVRVGALGRVADGVDEVRRAVREELQMGADQIKIMASGGVASPTDPVGVFGYSEDEIRAIVAEAQGRGTYVLAHAYTPAAIARAVRCGVRTIEHGNLIDDETARLVAEHGAYVVPTLVTYDALASEGEKYGLPPESIAKIADVHGAGLHSIEIMKRAGVKMGFGTDLLGEAQRLQSDEFRILAEVLSPAEVIASATIVSAEVLGMQDKLGRIVPGAHADVLVVDGNPLKSVDCLLGQGEHIPLVMKDGRLFVNELEGHEGHHHHHH”, for which the protein production result was “not failed”.

With “MSLYKRKSKLIGLLLPDMSNPFFTLIARGVEDVALAHGYQVLIGNSDNDIKKAQGYLATFVSHNCTGMISTAFNENIIENTLTDHHIPFVFIDRINNEHNGISTNHFKGGQLQAEVVRKGKGKNVLIVHENLLIDAFHQRVQGIKYILDQQRIDYKMLEATLLDNDKKFIDLIKELSIDSIICSNDLLAINVLGIVQRYHFKVPAEIQIIGYDNIPFSEMTYPQITTIDQSAYHLGEIAVSQLLGLNTDNLTNNHKQLALTVKHRGSTREGHHHHHH”, the protein production result is given as “not failed”.

For “MSMLGIKWKLHGNGKSIRPGHVVAPDERLAWPLTIGIGMQHVVAMFGATFLVPIITGMPPATTLLFSGIGTLLFLVITKGRVPSYLGSSFAFIAPIMASQQQYGVSGALGGVVLAGVVLALIGAVVQKFGAEWINRLMPPIVTGAIVALIGLNLAPAAKANFDAAPVTALITLVTIILVSVLFRGILGRLSILVGVVVGYLVAMMRGEVSYEKMDAAAWVGLPLFQTPEFHIGVVGLFVPVVLVLVAENVGHVKSVAAMTGQNLDGVSGRALMADGAATVLAGFGGGSGTTTYAENIGVMAATKVYSTAAYWVAGVFAILLSFSPKFGELIATVPPGVLGGAATMLYGMIGVLGVKIWVQNKVNFSNPINLTTAAVALIIGIADYAWTIGELKFTGIALGSAAALVIYHGMKGLAHWRGTVAEPETETAGLPPAVKSAMNAAAKRGGKKGK”, the protein production entry is listed as “failed”.

“MSMPNHPNLTTADAKKILNKFNCLDIAPILKPSEKESVRRALILITKLSDYQILGICADTADEGLLAMKTYSHALGYEVPIDLPVVEGPVYIKLNGKNGLCYLDSYAGHHRGVLVSCQSYYEGGINEMYGHLPLDLFV”: the protein production result was “not failed”.

In the case of “MSMSSIPSSSPGGKRYGWVEKIGNKVPHPFLLFIYLIAVLIAATAILSALNVGVQNPTDGSRVVVKNLLSVEGLHWFLPNVIKNFSGFAPLGAILALVLGAGFAERVGLLPALMVKMASHVSARYASYMVLFIAFFSHISSDAALVIMPPLGALMFLAVGRHPVAGLLAAIAGVGCGFTANLLIVTTDVLLSGISTEAAKSIDASLHVSVIDNWYFMATSVIVLTLVGGLITDKLVEPRLGQWQGSRDEKLQTLTPAERFGLRIAGVATLVFVAVIALMVVPENGILRDPVQHTVMPSPFIKGIVPLIIFFFFVVSLAYGIATGKIRRQADLPQLMIEPMKEMAGFIVMVFPLAQFVAMFNWSNMGKFMAVGLTDLLESSGMNGVPAFVGLALLSAFLCMFIASGSAIWSILAPIFVPMFMLLGFHPAFAQILFRIADSSVLPLAPVSPFVPLFLGFLQRYRPDARLGTYYSLVLPYPLIFLAVWLLLLVGWYLVGLPIGPGIYPRLS”, the protein production result was “failed”.

As to “MSMSSSSSICGDEDGDLLLDEEEEIDFYAILNVPKDATDDEIIKAYRKRCLMFHPDRFVDNDEKKDAERVFVKLRRAHEVLLDPKQRAIYDALGVQGLDTQGWEL”, the protein production result is given as “not failed”.

On to “MSMVVDSVPDSSTFVGKTIRPVAAVSIHGIVFDGERLLAVDSKNGYLLEIDPYTNNTKLLNGQYWQEFIGATGLAIADRQLWFSSGQYVYTCNLEGPDLKPEVFAWFDDPVNGVAIWESTVYITCHKRGHIWVYGRDTRKLVATFYSPGIGVENITVRGEELWVCDSAEQSVYCLDRATGEINFSLITPFESPTGLAFYDDQAVGKATLYVAYVQQEPYVRDNPNADPNHELMYRETTFIHPLYFYNDPHQCCAFSNGYLVEMRYVEELAPLDPVDLKQVEWRMALPAVTPRQRIRKIESVGLPFSRIDDVNGQKVAVFEFDQLDLDSRAVFGWRVEMEVWGIKYRLKPSDCEHLPALPEGFADRYLVDNDNLSMETDIIIRAAAEAIGRETNLLRQMFNIRNYVYDRLSYGIKPHIDTPDLALRRGVGSCGEYVGVLLALARLNGIACRTAGRYKCPPHPLQRNLPMEPDFNHVWFEFYLPGIGWLPMESNPDDTNDGGPYPTRFFMGLAWYHAETAKDVPFEQLLSQGIPVNKQVVSIGELAINHVQFTILEELDPAAHLAHLEHHHHHH”, for which the protein production result is recorded as “not failed”.

Take “MSNAIEINELHWLLAVTQNIDVGIVVLDLNYRVTVWNTFMENRSGVVPYVAIDKTFFELFPEVNRQWLSKKIDNVVTLGTPAFTIWEQRPYLVRFKNYQPITGHEEFMYQNTTLFPLRSTTGAISHVCLVIYDVTDVAANRNQLQAANDKLQQLSGAEQK”: the protein production entry is reported as “not failed”.

For the sequence “MSNDNGVSRRQFMKTSALAAGGLLLACHLPLGRRDAAAATAEAFTPNAFLHIGTDERVTVIVNKSEMGQGVYTSLPMLVAEELCCDWKRVTFRPSPVAPEYNHTQFGPIMVTGGSTSVRSEWSRLSLAGAAAREMLIAAAAQEWRVEPAACRAEKGFVLGPGGRKLSFGTLAPKAASLPVPKEPKLKPGAKTLLGKPLKRLDSPAKIKGTAVFGIDVRAPGMLTALIARPPVFGGTVKGFDAAKAKAVPGVLDVVAVDAGVAVVADGFWPALKGREALAISWDEGDGARVSTDAMREEYARLAATPGAVARKDGDAPAELAKAARRFEAEYEVPYLAHATMEPLNCFVDLQSDSCLIRTGSQFQTGDRNAAARVAGLKPEQVTLETTFLGGGFGRRACPASDFVIEAVQVAKTVGKPVMVIRTREDDMRAGFYRPLWRDRVAACLDGRGYPLAWHHCIVGQSIMIGTPFEAMIRNGIDDTSVEGAADTPYAIPNLQVELHSPRNPVPVLWWRSVGHSHTAFVVESFLDELAHAAGKDPYQYRRALLAKHPRHLKVLETAARKAGWGKPLPKGRGRGIAVHESFGSFIAQVAEVSLSGDGRIRVHRVVCAVDCGRIVNPDTIEAQMESGITFGLSAALHGAITLRNGRVEQGNFDDYPLVRMAEMPTVEVHIVLSGEDPGGIGEPGVPPIAPAVANALFAASGIRVRSLPLTPETVKRAGGRAA”, the protein production entry is on record as “failed”.

With “MSNDTPFDALWQRMLARGWTPVSESRLDDWLTQAPDGVVLLSSDPKRTPEVSDNPVMIGELLHEFPDYTWQVAIADLEQSEAIGDRFGAFRFPATLVFTGGNYRGVLNGIHPWAELINLMRGLVEPQQERASLEHHHHHH”, the protein production entry is “not failed”.

“MSNFEKRNRKMAEKNIRKPKQERSIEKRNKILQVAKDLFSDKTYFNVTTNEIAKKADVSVGTLYAYFASKEDILTALLKRYNDFFLTTIFADINSQDSLDRFKKNPKEWLNVLINQLLAAEDKIFHAQIEMLAYAIPQAKALLEEHNNNLKNLTYKCLLYYSDQAANPSFKTLSLVVFDFISALVDELLYHEHTQEEAHQIKKTGIDSLDLIIKSYL”: the protein production result is given as “not failed”.

Regarding “MSNHIDRDVINALIAGHFADPFSVLGMHRTDAGLEVRALLPDATDVWVIEPKTGRKVGKLECLDSRGFFSGVLPRRKNAFRYQLAVTWHGQQNLIDDPYRFGPLLQ”, the protein production result was “not failed”.

Regarding “MSNHRHDHSLPSDADSRYLVAALTLLAAFMITEIITAVISGSLALLSDAGHMLSDIGAIAIALWAARLTRRRPQGSWTWGWKRAEIMSAAVNGVTLLVVAILVGIEAVRRLVTPPAVGGGLVMVIAAVGVVVNVAVAWLVARANRRSLNVEGAYQHILTDLFGFIGTLVAGLVIVTTGWTRADAIASLIICGLMLRAAWSLLSQTGRILMEVAPASLDLDEVRHHLMDLDHVRSVHDLHAWTVSSDLPALSAHIVVEDSCFADGHAPILLAQIQQCLSGHFDLDHSTLQLEPPRHAGTENQTM”, the protein production result is “failed”.

With “MSNHSRDEPSTAPKTDQWYDLVLGSSAKDDSSHKFCTLRYEFKPASIDKNRSGSMHKKKDNRVSVEFQNNQPGKPKVTFEGSSEDYKESDAVLFFDGEKFRLERLHRAVTQLRHVRTPGESAAASQSAVPVEHRLSPVGRAAKSPQVNRSLLPDVPVEVERIEIGKPENSAEPANTGNVPATSPVEDKNDDGDEHQEIDLVEIFGSFTPENDNAEKENADGGEYVESLNKQLSMTEEEIADVDDDSGGEGEKGLNAAEALRAQVNAEVQKSQTSSSSSSSGSSSGSDSDGRSKSVSSGSGSGGQSSSGSSSRGSGGSDDEDEVNSV”, the protein production entry is reported as “failed”.

As for “MSNKEGSGGFRKRKHDNFPHNQRREGKDVNSSSPVMLAFKSFQQELDARHDKYERLVKLSRDITVESKRTIFLLHRITSAPDMEDILTESEIKLDGVRQKIFQVAQELSGEDMHQFHRAITTGLQEYVEAVSFQHFIKTRSLISMDEINKQLIFTTEDNGKENKTPSSDAQDKQFGTWRLRVTPVDYLLGVADLTGELMRMCINSVGNGDIDTPFEVSQFLRQVYDGFSFIGNTGPYEVSKKLYTLKQSLAKVENACYALKVRGSEIPKHMLADVFSVKTEMIDQEEGIS”, the protein production result was “failed”.

In the case of “MSNKGSSDLRLLLSTLVISGLVAGLAYWQLSQHWTRSPDQNAGSPLHTPTSKWQKIALAMTLRGHEDEVNAIALSPDGNFLVSAGDDRRLYFWNLATGTALGQAKGHTDWIYALVMTPDGQTVISGSKDKTIKLWGVGDRQLQATLSGHQDFVNGLALSPDGRTLASASYDHTVKLWNVPSRQEITTLKANEGIMLSVAISRDGRFLATGGVDKLIRIWDLPSRRLLRTLEGHTSDVNSLAFTPDSSQLVSGSDKDGIKLWNLTTGELQQQFGTEGGQVFSVAVSPDGSTLASGHGDQTVKLWSLSGQLLRNLKGHSGAVYSVVFGQDQLISASEDKTIKVWRLFPETP”, the protein production entry was “failed”.

As for “MSNMVEVPIFIAILSFIVMCIGELLAYYSVSLKYKYEFEAISFGFIFGVATLILIPKSYSNMFVLYVILGMITVYLIEKYLAYCPLSKKYCVECDNLEENRIKFIYPISFFIHTFIDGLIIAVSYISEIGLPLYLAILMHKLPAGFVLISPLKGVYKNPLYPGVFVSFGTVLGTIVGLVTLKDVSTKILLAFSGGVFLGAFLMLAPHIYEHKEEKTFLYILLGYILVGIIALH”, the protein production entry is “failed”.

Take “MSNNEPSSLKQSIKLAWPISLQSILVTMLGMSDIMMVGHLGDTAVASVGLGNRIQFVFLIILAGLASGVGTLSAQHFGAGQIGVIRQIIVKTLVIAAGILLPILLITFLFAGNIMGIATTDPSVINTGTSYLWLTMPSLIFVVVVMIFENALRGLGQVIFPMFISIIAIITNIILNYWLIKGGLGIEPMGVIGAALATLLARALHALLILTYLAKVKHSIFPTTFFCADFYNKQAWTKLLTLVWPMMLSFGVWSLGTFVYQLIYGRIGTQELAVMSLLAPIEGLLVSFFFGFASACAILVGQRLGKNEFSNAWSLAKNYAISAPIITFLLALILLQYQYLVFMPFSNLSSETITLSQEILVLICFGTCLKVFNMTIAMGILRAGGDNKYCMFIDISGMWIISIPLTFMAAFYFMLPLYWVALIAYSEEIIKAVMFIFRMKTRHWLKNLTAESMA”: the protein production entry was “failed”.

Take “MSNPLLSIIIPTHNRPHLVTHAVQSALEQTMEDLEVIVVDDASTQPIDLPSHPRLRLIRLLQSHGGAGARNVGLEAALGRWVAFLDDDDRLLPQMAEVSLEALSQTSLPAPVAVISGLEEVNAQGKVLGQRLPPPLRPRGVHFFLEEIEPDQSYNTKQTLVVEREVLQKIGGWDEEMRSRVHSELFLRLNPACSIIGLPIITYQLYNHGGQRVSRNPMLRQESFLRLVHKHKSLFQAHPQMFAKLVYEHANKCYEIGLKREAFYNLFWSMQLDPLQIAPRVVTRVYQSRLKFVIRSYKLKH”: the protein production result is on record as “failed”.
